Assay results: US11840557B2, “Wnt7 variants capable of activating g-protein coupled receptor (Gpr)124/Reck/frizzled/lipoprotein receptor-related protein (LRP)-mediated Wnt signaling” (UNIVERSITÉ LIBRE DE BRUXELLES, priority 2018, dated 2023)

How the values were obtained:
all 10 Fz genes = assay: STF luciferase assay after co-transfection with all 10 Fz genes, no Gpr124/Reck; format: cell-based; settings: in the absence of Gpr124/Reck
Description: Cells were plated into 96-well plates and transfected after 24 h in triplicate with Lipofectamine 2000 (Invitrogen, Carlsbad, Calif.). The amount of plasmid DNA transfected per well was optimized for each expression vector: Renilla luciferase (0.5 ng), Wnt (20 ng), Fz (5 ng), LRP (2.5 ng), Gpr124 (10 ng), Reck (10 ng) unless otherwise indicated. The total amount of DNA was adjusted to 100 ng per well with the empty pCS2 vector. Cells were harvested in passive lysis buffer (E1960, Promega, Wisconsin) and the activities of the Firefly and Renilla luciferases were measured sequentially using the Dual-Luciferase Reporter Assay system (E1960, Promega, Madison, Wis.) 48 h post-transfection.

zebrafish zygote = format: in vivo, Danio rerio; settings: injection in zygote, 3 dpf larvae
Description: (§1) The following splice-blocking morpholino (MOs) (GeneTools, Eugene, OR) were injected into embryos at the one-cell stage: wnt7aa ([…], 6 ng) (SEQ ID NO.: 123). Synthetic mRNAs were transcribed from pCS2 plasmids after NotI digestion using the mMessage mMachine SP6 Kit (Ambion, Carlsbad, CA) and injected into one-cell stage zebrafish embryo. For Xenopus laevis microinjection, 15 pg of wnt7a or wnt7a^K190A or wnt7a^1-278 mRNA were injected into one ventral blastomere of the four-cell stage embryo.
(§2) zebrafish embryos were imaged with an LSM710 confocal microscope and images were processed in ImageJ. Images of zebrafish development phenotypes were taken on Leica M165 FC. Xenopus larvae were imaged with an Olympus SZX16.

wnt7aa morphants = assay: Trunk DRG rescue in wnt7aa morphant zebrafish larvae; format: in vivo, Danio rerio; settings: 100 pg mRNA injection, 72 hpf
Description: Zebrafish (Danio rerio) were raised and handled under standard conditions following the rules of the State of Belgium (protocol approval number: CEBEA-IBMM-2017-22:65). The following line was used: Tg(−17.0neurog1:EGFP)^w61 (McGraw et al., J. Neurosci 28(47):12558-69 (2008)).
as §1, §2

[1] = tested on: Wnt7aa^−/− mutant zebrafish; assay: Transgenic endothelial expression (kdrl promoter) in Wnt7aa−/− zebrafish: hindbrain CtAs and GLUT1 staining; format: in vivo, Danio rerio; settings: 60 hpf embryos
From the text: (A) Dorsal views of the cerebral vasculatures of 60 hpf WT or Wnt7aa^−/− Tg(kdrl:EGFP) embryos. In Wnt7a^−/− mutants, the intracerebral CtAs are lacking. Wnt7, Wnt7a^K190A or Wnt7a^1-278 were transiently expressed in the endothelium of Wnt7aa^−/− embryos under the control of an endothelial-specific kdrl (Vascular endothelial growth factor receptor kdr-like) promoter. The Wnt7 ligands were expressed as a biscistronic construct with BFP (Blue Fluorescent Protein) used as transgenesis marker. In contrast to uninjected embryos, Wnt7, Wnt7a^K190A or Wnt7a^1-278 restore hindbrain CtAs formation in Wnt7aa^−/− mutants as quantified in (B). (C) Anti-GLUT1 staining of the CtAs after transgenic expression of Wnt7, Wnt7a^K190A and Wnt7a^1-278 in 60 hpf Wnt7aa^−/− embryos. Transgenic expression was achieved as in (A).
Mouse Wnt7, Wnt7a^K190A and Wnt7a^1-278 were transiently expressed in the endothelium of Wnt7aa^−/− embryos under the control of an endothelial-specific kdrl (Vascular endothelial growth factor receptor kdr-like) promoter. The Wnt7 ligands were expressed as a biscistronic construct with BFP (Blue Fluorescent Protein) as transgenesis marker.

B1: Wnt7a^K190A: single-residue variant of full-length mWnt7a (precursor numbering); Gpr124/Reck-selective agonist (protein)
chain: LGASIICNKIPGLAPRQRAICQSRPDAIIVIGEGSQMGLDECQFQFRNGRWNCSALGERTVFGKELKVGSREAAFTYAIIAAGVAHAITAACTQGNLSDCGCDKEKQGQYHRDEGWKWGGCSADIRYGIGFAKVFVDAREIKQNARTLMNLHNNEAGRAILEENMKLECKCHGVSGSCTTKTCWTTLPQFRELGYVLKDKYNEAVHVEPVRASRNKRPTFLKIKKPLSYRKPMDTDLVYIEKSPNYCEEDPVTGSVGTQGRACNKTAPQASGCDLMCCGRGYNTHQYARVWQCNCKFHWCCYVKCNTCSERTEMYTCK
modifications: human Wnt7a variant K159A
All 10 Fz genes
  signaling through any Fz: failed to signal through any Fz
Zebrafish zygote
  mRNA dose well tolerated without posteriorizing or gross anatomical alterations: ≤ 100 pg
wnt7aa morphants
  DRG rescue: significant DRG rescues
[1]; anti-GLUT1 staining of CtAs
  blood-brain barrier (GLUT1 expression): restored blood-brain barrier
[1]; transient endothelial expression
  brain angiogenesis / hindbrain CtAs formation: triggered GPR124/RECK-dependent brain angiogenesis
